Data as given in patent US11278600B2, “Human alpha-galactosidase variants” (Codexis, Inc., priority 2014, dated 2022).

Key:
Format in all cases: biochemical
[1] = HTP-analysis of yeast culture supernatants, no challenge (MUGal hydrolysis); details: activity of the variant/activity of Rd4BB (SEQ ID NO: 15)
How it was run: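 GLA variants were expressed in INVSc1 yeast grown in SD-Ura broth with glucose at 30° C., and culture supernatants were collected after 66-84 h. Supernatant was mixed with McIlvaine buffer pH 4.8 and MUGal (2 mM stock) in 50 mM citrate, 200 mM KCl, pH 4.6, incubated at 37° C. for 30-180 minutes, then quenched with sodium carbonate.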

[2] = HTP-analysis of supernatants pretreated with acid (MUGal hydrolysis); details: activity of the variant/activity of Rd4BB (SEQ ID NO: 15); challenge at pH 3.7
How it was run: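 Supernatants from INVSc1 yeast secreting GLA variants were challenged at 37° C. for 1-3 h in McIlvaine buffer at pH 3.3-4.3. Residual activity was then measured on 4 mM MUGal substrate stock at pH 4.8 with citrate buffer pH 4.3, over 30-180 min at 37° C. Reactions were quenched with sodium carbonate and read by fluorescence (Ex 355/Em 448 nm).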

[3] = HTP-analysis of supernatants pretreated with base (MUGal hydrolysis); details: activity of the variant/activity of Rd4BB (SEQ ID NO: 15); challenge at pH 9.65
How it was run: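 Supernatants from INVSc1 yeast expressing GLA variants (SD-Ura, 66-84 h, 30° C) were mixed with McIlvaine buffer pH 7.0-8.2 or 200 mM sodium bicarbonate pH 9.1-9.7 and held 1-18 h at 37° C. Residual activity was then measured on MUGal at pH 4.8/4.3, 37° C, 30-180 min, by fluorescence (Ex 355/Em 448 nm).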

B1: 392 (protein)
chain: LDNGLARTPTMGWLHWERFMCNLDCQEEPDSCISEKLFMEMAERMVSEGWKDAGYEYLCIDDCWMAPQRDSEGRLQADPQRFPHGIRQLANYTHSKGLKLGIYADVGNKTCAGFPGSFGYYDIDAQTFADWGVDLLKFDGCYCDSLENLADGYKHMSLALNRTGRSIVYSCEWPLYMWPFQKPNYTEIRQYCNHWRNFADIDDSWKSIKSILDWTSRNQERIVDVAGPGGWNDPDMLVIGNFGLSWDQQVTQMALWAIMAAPLFMSNDLRHISPQAKALLQDKDVIAINQDPLGKQGYQLRKGDNFEVWERPLSGDAWAVAIINRQEIGGPRSYTIPVASLGKGVACNPACFITQLLPVKRQLGFYNWTSRLKSHINPTGTVLLQLENTMQMSLKDLL
modifications: Synthetic Polypeptide sequence of Variant No. 392 of mature Human GLA
With B1 the “Relative Activity of GLA Variants After No Challenge (NC)” value [1] was “+ (0.5 to 1.5 relative activity over Rd4BB (SEQ ID NO: 15))”, the “Relative Activity of GLA Variants After Challenge at pH 3.7” value (“Relative Activity … at pH 3.7” for short) [2] was “+ (0.5 to 1.5 relative activity over Rd4BB (SEQ ID NO: 15))” and the “Relative Activity of GLA Variants After Challenge at pH 9.65” value (“Relative Activity … at pH 9.65” for short) [3] was “− (<0.5 relative activity over Rd4BB (SEQ ID NO: 15))”.

B2: 393 (protein)
chain: LDNGLARTPTMGWLHWERFMCNLDCQEEPDSCISEKLFMEMAERMVSEGWKDAGYEYLCIDDCWMAPQRDSEGRLQADPQRFPHGIRQLANYGHSKGLKLGIYADVGNKTCAGFPGSFGYYDIDAQTFADWGVDLLKFDGCYCDSLENLADGYKHMSLALNRTGRSIVYSCEWPLYMWPFQKPNYTEIRQYCNHWRNFADIDDSWKSIKSILDWTSRNQERIVDVAGPGGWNDPDMLVIGNFGLSWDQQVTQMALWAIMAAPLFMSNDLRHISPQAKALLQDKDVIAINQDPLGKQGYQLRKGDNFEVWERPLSGDAWAVAIINRQEIGGPRSYTIPVASLGKGVACNPACFITQLLPVKRQLGFYNWTSRLKSHINPTGTVLLQLENTMQMSLKDLL
modifications: Synthetic Polypeptide sequence of Variant No. 393 of mature Human GLA
With B2 the “Relative Activity of GLA Variants After No Challenge (NC)” value [1] was “+ (0.5 to 1.5 relative activity over Rd4BB (SEQ ID NO: 15))”, the “Relative Activity … at pH 3.7” value [2] was “− (<0.5 relative activity over Rd4BB (SEQ ID NO: 15))” and the “Relative Activity … at pH 9.65” value [3] was “− (<0.5 relative activity over Rd4BB (SEQ ID NO: 15))”.

B3: 395 (protein)
chain: LDNGLARTPTMGWLHWERFMCNLDCQEEPDSCISEKLFMEMAERMVSEGWKDAGYEYLCIDDCWMAPQRDSEGRLQADPQRFPHGIRQLANHVHSKGLKLGIYADVGNKTCAGFPGSFGYYDIDAQTFADWGVDLLKFDGCYCDSLENLADGYKHMSLALNRTGRSIVYSCEWPLYMWPFQKPNYTEIRQYCNHWRNFADIDDSWASIKSILDWTSRNQERIVDVAGPGGWNDPDMLVIGNFGLSWDQQVTQMALWAIMAAPLFMSNDLRHISPQAKALLQDKDVIAINQDPLGKQGYQLRKGDNFEVWERPLSGDAWAVAIINRQEIGGPRSYTIPVASLGKGVACNPACFITQLLPVKRQLGFYNWTSRLKSHINPTGTVLLQLENTMQMSLKDLL
modifications: Synthetic Polypeptide sequence of Variant No. 395
With B3 the “Relative Activity of GLA Variants After No Challenge (NC)” value [1] was “+ (0.5 to 1.5 relative activity over Rd4BB (SEQ ID NO: 15))”, the “Relative Activity … at pH 3.7” value [2] was “+ (0.5 to 1.5 relative activity over Rd4BB (SEQ ID NO: 15))” and the “Relative Activity … at pH 9.65” value [3] was “+ (0.5 to 1.5 relative activity over Rd4BB (SEQ ID NO: 15))”.

B4: 394 (protein)
chain: LDNGLARTPTMGWLHWERFMCNLDCQEEPDSCISEKLFMEMAERMVSEGWKDAGYEYLCIDDCWMAPQRDSEGRLQADPQRFPHGIRQLANYRHSKGLKLGIYADVGNKTCAGFPGSFGYYDIDAQTFADWGVDLLKFDGCYCDSLENLADGYKHMSLALNRTGRSIVYSCEWPLYMWPFQKPNYTEIRQYCNHWRNFADIDDSWKSIKSILDWTSRNQERIVDVAGPGGWNDPDMLVIGNFGLSWDQQVTQMALWAIMAAPLFMSNDLRHISPQAKALLQDKDVIAINQDPLGKQGYQLRKGDNFEVWERPLSGDAWAVAIINRQEIGGPRSYTIPVASLGKGVACNPACFITQLLPVKRQLGFYNWTSRLKSHINPTGTVLLQLENTMQMSLKDLL
modifications: Synthetic Polypeptide sequence of Variant No. 394 of mature Human GLA
With B4 the “Relative Activity of GLA Variants After No Challenge (NC)” value [1] was “+ (0.5 to 1.5 relative activity over Rd4BB (SEQ ID NO: 15))”, the “Relative Activity … at pH 3.7” value [2] was “+ (0.5 to 1.5 relative activity over Rd4BB (SEQ ID NO: 15))” and the “Relative Activity … at pH 9.65” value [3] was “− (<0.5 relative activity over Rd4BB (SEQ ID NO: 15))”.

B5: 397 (protein)
chain: LDNGLARTPTMGWLHWERFMCNLDCQEEPDSCISEKLFMEMAERMVSEGWKDAGYEYLCIDDCWMAPQRDSEGRLQADPQRFPHGIRQLANYVHSKGLKLGIYADVGNKTCAGFPGSFGYYDIDAQTFADWGVDLLKFDGCYCDSLENLADGYKHMSRALNRTGRSIVYSCEWPLYMWPFQKPNYTEIRQYCNHWRNFADIDDSWKSIKSILDWTSRNQERIVDVAGPGGWNDPDMLVIGNFGLSWDQQVTQMALWAIMAAPLFMSNDLRHISPQAKALLQDKDVIAINQDPLGKQGYQLRKGDNFEVWERPLSGDAWAVAIINRQEIGGPRSYTIPVASLGKGVACNPACFITQLLPVKRQLGFYNWTSRLKSHINPTGTVLLQLENTMQMSLKDLL
modifications: Synthetic Polypeptide sequence of Variant No. 397 of mature Human GLA
For B5, the “Relative Activity of GLA Variants After No Challenge (NC)” value [1] was “+ (0.5 to 1.5 relative activity over Rd4BB (SEQ ID NO: 15))”, the “Relative Activity … at pH 3.7” value [2] was “+ (0.5 to 1.5 relative activity over Rd4BB (SEQ ID NO: 15))” and the “Relative Activity … at pH 9.65” value [3] was “+ (0.5 to 1.5 relative activity over Rd4BB (SEQ ID NO: 15))”.

B6: 396 (protein)
chain: LDNGLARTPTMGWLHWERFMCNLDCQEEPDSCISEKLFMEMAERMVSEGWKDAGYEYLCIDDCWMAPQRDSEGRLQADPQRFPHGIRQLANYVHSKGLKLGIYADVGNKTCAGFPGSFGYYDIDAQTFADWGVDLLKFDGCYCDSLENLADGYKHMSMALNRTGRSIVYSCEWPLYMWPFQKPNYTEIRQYCNHWRNFADIDDSWKSIKSILDWTSRNQERIVDVAGPGGWNDPDMLVIGNFGLSWDQQVTQMALWAIMAAPLFMSNDLRHISPQAKALLQDKDVIAINQDPLGKQGYQLRKGDNFEVWERPLSGDAWAVAIINRQEIGGPRSYTIPVASLGKGVACNPACFITQLLPVKRQLGFYNWTSRLKSHINPTGTVLLQLENTMQMSLKDLL
modifications: Synthetic Polypeptide sequence of Variant No. 396 of mature Human GLA
For B6, the “Relative Activity of GLA Variants After No Challenge (NC)” value [1] was “+ (0.5 to 1.5 relative activity over Rd4BB (SEQ ID NO: 15))”, the “Relative Activity … at pH 3.7” value [2] was “+ (0.5 to 1.5 relative activity over Rd4BB (SEQ ID NO: 15))” and the “Relative Activity … at pH 9.65” value [3] was “+ (0.5 to 1.5 relative activity over Rd4BB (SEQ ID NO: 15))”.
